In the RNAGym collection of RNA variant scans (doi:10.1073/pnas.2313332121):
Fewer inactive variants are shown than the library holds.

B1: TPR 5TU (parent)
chain: GGAUCUUCUCGAUCUAACAAAAAAGACAAAUCUGCCACAAAGCUUGAGAGCAUCUUCGGAUGCAGAGGCGGCAGCCUUCGGUGGCGCGAUAGCGCCAACGUUCUCAACUAUGACACGCAAAACGCGUGCUCCGUUGAAUGGAGUUUAUCAUG

Variants of: B1
Test: polymerase ribozyme fitness, log enrichment relative to wild type (log ratio); higher = more active; in vitro selection for triplet polymerase activity
In short: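 Both subunits of a heterodimeric triplet polymerase ribozyme were given their own mutant library, built by PCR and transcribed. Each library was annealed with a biotinylated primer, the partner subunit and triplets, incubated frozen at −7 °C, and its extended constructs gel-excised, captured on streptavidin beads and amplified by RT-PCR, all in one round done in triplicate. Fitness is the logarithm of genotype enrichment relative to wild-type enrichment, with replicates averaged by inverse-variance weighting. That logarithm is base 2, and Illumina-sequenced genotypes needed ≥10 input reads and ≥1 read per output.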

First: A20G C54G C96U
Second: A20G G34A C118G A121C
The “polymerase ribozyme fitness (log ratio)” value of the first is higher: -2 for the first, -3.83 for the second.

A20C U127G G133C U134C A137C A138G G140A and A20G G50C C54G C105G A106U G133C U151A cannot be ordered by “polymerase ribozyme fitness (log ratio)” value: at most -4.2 for the first, at most -4.2 for the second.

Compared with A19U U55G G86U, A20U G48A G50A C76G C96G U135G is lower in “polymerase ribozyme fitness (log ratio)” value: -1.7 for the first, at most -4.2 for the second.

Compared with A20C U61G C75U U146A, A20U C32U U56A A142U is lower in “polymerase ribozyme fitness (log ratio)” value: -2.77 for the first, -3.91 for the second.

Going from A20G G59C G70A to A20U A47U A49C U53A G80C A91U C96U A137G G140U, the “polymerase ribozyme fitness (log ratio)” value falls from -4.05 to at most -4.2.

A20G G50C C54G C76A C87G U90G C95U and A20G A29C G46U C54U C96U C116A U148A cannot be ordered by “polymerase ribozyme fitness (log ratio)” value: at most -4.2 for the first, at most -4.2 for the second.

Going from A20C G59A G81C G86C to A20U C27A U31G A40G G42U C96G A97G, the “polymerase ribozyme fitness (log ratio)” value falls from -3.14 to at most -4.2.

A20U G46C U56A C96U U135C A147G and A20U A49C G58C C87U cannot be ordered by “polymerase ribozyme fitness (log ratio)” value: at most -4.2 for the first, at most -4.2 for the second.

A19U U55G C85G C96U C116A U139A and A20U A29U C43U A47G A49C C54G C95U C105A U145G A147G cannot be ordered by “polymerase ribozyme fitness (log ratio)” value: at most -4.2 for the first, at most -4.2 for the second.

First: A20U C85G C125A U145C
Second: A20U C35A G92U A110U
The “polymerase ribozyme fitness (log ratio)” value of the first is higher: -3.41 for the first, at most -4.2 for the second.

A20G A26U A39C G86C A150C and A20C A73G C87G C114U G141A cannot be ordered by “polymerase ribozyme fitness (log ratio)” value: at most -4.2 for the first, at most -4.2 for the second.

Going from A20C A30C G100C U102G G143U U145G to A20C A60G, the “polymerase ribozyme fitness (log ratio)” value rises from at most -4.2 to -0.605.

First: A19U G86A
Second: A19U G86C
The “polymerase ribozyme fitness (log ratio)” value of the first is higher: -2.04 for the first, -2.58 for the second.

Compared with A20G C69U G84C G126C G136A, A20C C36A A49U U56G A91U U146C is lower in “polymerase ribozyme fitness (log ratio)” value: -1.72 for the first, at most -4.2 for the second.

First: A20C A39U A106G C131U A138U
Second: A20G C57U G62C G136U
The “polymerase ribozyme fitness (log ratio)” value of the first is lower: at most -4.2 for the first, -3.44 for the second.

Going from A20G A40C C72U G92A to A20C C87A C116U, the “polymerase ribozyme fitness (log ratio)” value falls from -4.04 to at most -4.2.

First: A20C G46A C69G G94A
Second: A20U C57G C93U C123U
The “polymerase ribozyme fitness (log ratio)” value of the first is higher: -2.22 for the first, -2.57 for the second.

First: A20G A21C G84U C95G G117U
Second: A20C A49G G81A C87G U104G A138C
The “polymerase ribozyme fitness (log ratio)” value of the first is higher: -0.439 for the first, at most -4.2 for the second.

Compared with A20U C32G U56G G81A C93U A107G C131U C132G U135G A147G, A20C C32A A52G A91U G94A C99U A147U G152U is higher in “polymerase ribozyme fitness (log ratio)” value: at most -4.2 for the first, -3.97 for the second.

Going from A20G A107G C116G A122G G124A G128C to A20C G94A G136U, the “polymerase ribozyme fitness (log ratio)” value rises from at most -4.2 to -3.83.

Compared with A20G A29U C51G C87G, A20U C32G A40G U55G is higher in “polymerase ribozyme fitness (log ratio)” value: at most -4.2 for the first, -4.19 for the second.

Compared with A20U A24G A29C C38G G80C A89G C105U C116G, A20C G81C C87U is higher in “polymerase ribozyme fitness (log ratio)” value: at most -4.2 for the first, -1.28 for the second.

Compared with A19U U45G, A20C A28U G48C G70A C87G A120G U135C is lower in “polymerase ribozyme fitness (log ratio)” value: -0.38 for the first, at most -4.2 for the second.

Going from A20C G65U U90G C93U C129A to A20C A40C U56A G92U, the “polymerase ribozyme fitness (log ratio)” value rises from at most -4.2 to -0.349.

First: A20U A21C U102A C125G
Second: A20U C27A C38G C54U C79U G112A
The “polymerase ribozyme fitness (log ratio)” value of the first is higher: -3.5 for the first, at most -4.2 for the second.

Going from A20G A24U U111A A142U G143U to A20C G83U A89U A97U, the “polymerase ribozyme fitness (log ratio)” value rises from at most -4.2 to -2.13.

Going from A20U C54A A106C to A20U C93A, the “polymerase ribozyme fitness (log ratio)” value rises from -3.99 to -2.86.

First: A20U C93G
Second: A20C A47C
The “polymerase ribozyme fitness (log ratio)” value of the first is lower: at most -4.2 for the first, -0.462 for the second.

A20G A23C U144G and A20C A39C C79G A106G G124U cannot be ordered by “polymerase ribozyme fitness (log ratio)” value: at most -4.2 for the first, at most -4.2 for the second.

A20C C36U C85G C103G and A20U A23U A24U C51U A60G C85G cannot be ordered by “polymerase ribozyme fitness (log ratio)” value: at most -4.2 for the first, at most -4.2 for the second.

A20C G25U C51A U77G G94C A115U G140C and A20G A21U A26U A29U A39C A91G G94U A97G C99A C131A A142G cannot be ordered by “polymerase ribozyme fitness (log ratio)” value: at most -4.2 for the first, at most -4.2 for the second.

Going from A20U A39C to A20C C76A A119U, the “polymerase ribozyme fitness (log ratio)” value rises from -3.84 to -1.

First: A20C G48U G83U
Second: A20C C43U U44A U55G C79U G141A
The “polymerase ribozyme fitness (log ratio)” value of the first is higher: -2.07 for the first, at most -4.2 for the second.

Going from A20G U33C C87U A89G U151G to A20U G25C G141A, the “polymerase ribozyme fitness (log ratio)” value rises from at most -4.2 to -4.03.

A20G G34C C38A C76U U90C C114U and A20U C32G C57U A73G U82G G92A cannot be ordered by “polymerase ribozyme fitness (log ratio)” value: at most -4.2 for the first, at most -4.2 for the second.

First: A20G C87U U148A
Second: A19U U33C C69U G126U
The “polymerase ribozyme fitness (log ratio)” value of the first is lower: -3.21 for the first, -0.898 for the second.

First: A20U A23G G88A C99G C149G
Second: A19U U45A G83C
The “polymerase ribozyme fitness (log ratio)” value of the first is lower: at most -4.2 for the first, -3.67 for the second.

A20G G25A A49G C54U C76U G84A A122U U145G and A20U A52G C75U G88A C103G A119C cannot be ordered by “polymerase ribozyme fitness (log ratio)” value: at most -4.2 for the first, at most -4.2 for the second.

A20C A52U C93U C95A C96A U109A C125U and A20G A29U C51A A106C A113U cannot be ordered by “polymerase ribozyme fitness (log ratio)” value: at most -4.2 for the first, -4.2 for the second.

Compared with A19U G81C C85U U145A, A19U G59A G83U C95A C132U G136U G141A is lower in “polymerase ribozyme fitness (log ratio)” value: -0.303 for the first, at most -4.2 for the second.

First: A20U G81C A147U
Second: A20U G48A G68U G83C C103G A138G G143C
The “polymerase ribozyme fitness (log ratio)” value of the first is higher: -0.168 for the first, at most -4.2 for the second.

Going from A20U A39U C51G A66C C93G U134A to A20C U31G A40U, the “polymerase ribozyme fitness (log ratio)” value rises from at most -4.2 to -0.279.
